This is an account of results in US5455227A, “Biologically active lipoprotein and its use” (KabiGen AB, priority 1988, dated 1995).

The data set in a line: In-vitro surface properties of lipoprotein-based artificial surfactant, pulsating bubble instrument (Example 4). The data set is classed as physicochemical. The note with it: phospholipid 10 mg/ml, 37° C., compared with native lipoprotein. As to the method:
To this mixture surfactant lipoprotein dissolved in chloroform/methanol 1:2 (v/v) was added, giving a lipoprotein to phospholipid ratio of 1:50. The solvents were evaporated to dryness and the different surfactant preparations (phospholipids, phospholipids+lipoprotein fraction) were suspended in saline giving a phospholipid concentration of 10 or 80 mg/ml.
The surface properties of the lipoprotein-based artificial surfactant were analyzed with a pulsating bubble instrument (Surfactometer International, Toronto, Canada) (30). The surfactant preparations were suspended at a phospholipid concentration of 10 mg/ml, and the pressure gradient across the bubble wall was recorded at 37° C. during 50% cyclic surface compression at the rate of 40/min. Surface tension was assessed at maximal and minimal bubble sizes during the 5th cycle and after 1 and 5 min of pulsation.
The tracings therein represent pressure gradients across the bubble wall; max and min indicate maximal (radius 0.55 mm) and minimal (radius 0.40 mm) bubble size during pulsation at a rate of 40/min. A pressure gradient close to zero at minimal bubble size corresponds to nearly zero surface tension.

For the substance “lipopeptide: hexapeptide H2 N-Ile-Pro-Cys-Cys-Pro-Val-COOH conjugated with palmitoyl-chloride (thioester lipopeptide) (H-IPCCPV-OH; also: palmitoyl thioester, Cys not given here)”, the “performance in the procedure of Example 4 (surface properties)” value was “performs similarly as the native lipoprotein”.
